From the supplement of paper PMC9112550, “Optimization of the antimicrobial peptide Bac7 by deep mutational scanning” (BMC Biology, 2022)

Tested on: Escherichia coli TOP10
Assay: shrunken log2 fold change of peptide-encoding DNA abundance (4.5 h post-induction vs induction); higher = less antimicrobial activity (less host growth inhibition)
Conditions: time post-induction: 4.5 h; library: site-saturation at positions 5, 18, 19, 20
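Also: peptides expressed intracellularly from a pBAD plasmid library in pooled LB shake-flask culture, induced with 0.3% L-arabinose, DNA abundance read by NGS, three biological replicates, DESeq2 with apeglm shrinkage.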

Row | Sequence | shrunken log2 fold change
1 | RRIRCRPPRLPRPRPRPRYEPRP | -0.0468
2 | RRIRHRPPRLPRPRPRPYYWPRP | -0.0132
3 | RRIRERPPRLPRPRPRPMCRPRP | 0.03
4 | RRIRQRPPRLPRPRPRPFRIPRP | -0.0135
5 | RRIRQRPPRLPRPRPRPHGLPRP | -0.327
6 | RRIRSRPPRLPRPRPRPKVSPRP | 0.21
7 | RRIRWRPPRLPRPRPRPQREPRP | 0.0297
8 | RRIRWRPPRLPRPRPRPRMAPRP | 0.614
9 | RRIRKRPPRLPRPRPRPMFFPRP | -0.14
10 | RRIRTRPPRLPRPRPRPTRRPRP | 0.71
11 | RRIRYRPPRLPRPRPRPKTGPRP | -0.243
12 | RRIRCRPPRLPRPRPRPWVCPRP | 0.0107
13 | RRIRQRPPRLPRPRPRPEMFPRP | -0.118
14 | RRIRARPPRLPRPRPRPEAPPRP | 1.11
15 | RRIRIRPPRLPRPRPRPEFTPRP | -0.1
16 | RRIRHRPPRLPRPRPRPYLWPRP | 0.0116
17 | RRIRPRPPRLPRPRPRPSFQPRP | 0.0876
18 | RRIRSRPPRLPRPRPRPETYPRP | -0.293
19 | RRIRMRPPRLPRPRPRPQPYPRP | -0.00544
20 | RRIRNRPPRLPRPRPRPPRQPRP | 0.449
21 | RRIRQRPPRLPRPRPRPNWVPRP | 0.00521
22 | RRIRHRPPRLPRPRPRPPPCPRP | 0.603
23 | RRIRGRPPRLPRPRPRPEVKPRP | 0.0386
24 | RRIRGRPPRLPRPRPRPQFRPRP | 0.0341
25 | RRIRHRPPRLPRPRPRPRACPRP | 0.0227

Row | Sequence | shrunken log2 fold change
26 | RRIRHRPPRLPRPRPRPSCQPRP | -0.31
27 | RRIRQRPPRLPRPRPRPNFCPRP | 0.117
28 | RRIRSRPPRLPRPRPRPHWCPRP | -0.125
29 | RRIRHRPPRLPRPRPRPTDMPRP | 0.151
30 | RRIRKRPPRLPRPRPRPSDDPRP | 0.154
31 | RRIRFRPPRLPRPRPRPRCWPRP | 0.309
32 | RRIRPRPPRLPRPRPRPTSEPRP | 0.0181
33 | RRIRWRPPRLPRPRPRPHLEPRP | -0.16
34 | RRIRRRPPRLPRPRPRPIKTPRP | 0.00866
35 | RRIRRRPPRLPRPRPRPPTAPRP | 0.569
36 | RRIRPRPPRLPRPRPRPPRGPRP | 0.811
37 | RRIRHRPPRLPRPRPRPGNPPRP | 0.0424
38 | RRIRARPPRLPRPRPRPWRCPRP | 0.0472
39 | RRIRARPPRLPRPRPRPPTDPRP | 0.839
40 | RRIRKRPPRLPRPRPRPGSQPRP | 0.359
41 | RRIRIRPPRLPRPRPRPCKKPRP | -0.0718
42 | RRIRARPPRLPRPRPRPNKWPRP | -0.0519
43 | RRIRERPPRLPRPRPRPGEVPRP | 0.0814
44 | RRIRGRPPRLPRPRPRPRDHPRP | 0.978
45 | RRIRCRPPRLPRPRPRPTITPRP | -0.44
46 | RRIRFRPPRLPRPRPRPFHRPRP | -0.0134
47 | RRIRGRPPRLPRPRPRPVLAPRP | 0.773
48 | RRIRDRPPRLPRPRPRPWTKPRP | 0.0467
49 | RRIRCRPPRLPRPRPRPEWTPRP | 0.154
50 | RRIRTRPPRLPRPRPRPMMTPRP | 0.0356

Row | Sequence | shrunken log2 fold change
51 | RRIRLRPPRLPRPRPRPQIAPRP | -0.0971
52 | RRIRVRPPRLPRPRPRPYYKPRP | -0.67
53 | RRIRERPPRLPRPRPRPDLHPRP | -0.262
54 | RRIRVRPPRLPRPRPRPAYSPRP | -0.167
55 | RRIRRRPPRLPRPRPRPRRMPRP | 0.206
56 | RRIRDRPPRLPRPRPRPTMQPRP | 0.625
57 | RRIRRRPPRLPRPRPRPCSYPRP | -0.19
58 | RRIRQRPPRLPRPRPRPAGAPRP | 0.666
59 | RRIRYRPPRLPRPRPRPALMPRP | -0.226
60 | RRIRNRPPRLPRPRPRPKEDPRP | 0.0361
61 | RRIRARPPRLPRPRPRPSVMPRP | 0.00738
62 | RRIRGRPPRLPRPRPRPRQSPRP | 0.647
63 | RRIRERPPRLPRPRPRPTETPRP | -0.00327
64 | RRIRRRPPRLPRPRPRPARIPRP | 0.0165
65 | RRIRARPPRLPRPRPRPHQWPRP | 0.137
66 | RRIRVRPPRLPRPRPRPYPMPRP | -0.299
67 | RRIRKRPPRLPRPRPRPSLNPRP | -0.0764
68 | RRIRRRPPRLPRPRPRPWSKPRP | -0.225
69 | RRIRGRPPRLPRPRPRPPGSPRP | 1.09
70 | RRIRCRPPRLPRPRPRPKHEPRP | -0.000422
71 | RRIRMRPPRLPRPRPRPERGPRP | 1.39
72 | RRIRKRPPRLPRPRPRPSCGPRP | 0.817
73 | RRIRVRPPRLPRPRPRPVNQPRP | -0.0283
74 | RRIRYRPPRLPRPRPRPVSDPRP | -0.379
75 | RRIRGRPPRLPRPRPRPHLHPRP | 0.227

Row | Sequence | shrunken log2 fold change
76 | RRIRHRPPRLPRPRPRPYAHPRP | -0.702
77 | RRIRLRPPRLPRPRPRPFPIPRP | -0.0478
78 | RRIRKRPPRLPRPRPRPEKIPRP | 0.185
79 | RRIRCRPPRLPRPRPRPRVYPRP | -0.217
80 | RRIRNRPPRLPRPRPRPYCRPRP | -0.982
81 | RRIRLRPPRLPRPRPRPNLGPRP | -0.0507
82 | RRIRHRPPRLPRPRPRPANVPRP | -0.192
83 | RRIRHRPPRLPRPRPRPTCTPRP | 0.141
84 | RRIRNRPPRLPRPRPRPFIFPRP | -0.373
85 | RRIRRRPPRLPRPRPRPDCLPRP | -0.136
86 | RRIRKRPPRLPRPRPRPNFVPRP | 0.309
87 | RRIRERPPRLPRPRPRPRTIPRP | -0.337
88 | RRIRMRPPRLPRPRPRPKESPRP | 0.939
89 | RRIRVRPPRLPRPRPRPLWHPRP | -0.0301
90 | RRIRDRPPRLPRPRPRPMVRPRP | 0.152
91 | RRIRVRPPRLPRPRPRPVKVPRP | 0.0348
92 | RRIRMRPPRLPRPRPRPYIWPRP | -0.402
93 | RRIRKRPPRLPRPRPRPHQCPRP | -0.0321
94 | RRIRHRPPRLPRPRPRPVKCPRP | -0.00443
95 | RRIRGRPPRLPRPRPRPERKPRP | 0.92
96 | RRIRSRPPRLPRPRPRPFRCPRP | -0.148
97 | RRIRARPPRLPRPRPRPWFEPRP | -0.0275
98 | RRIRYRPPRLPRPRPRPQKQPRP | 0.00415
99 | RRIRHRPPRLPRPRPRPPFFPRP | 0.168
100 | RRIRCRPPRLPRPRPRPNWHPRP | -0.271

Row | Sequence | shrunken log2 fold change
101 | RRIRKRPPRLPRPRPRPFTFPRP | -0.325
102 | RRIRGRPPRLPRPRPRPNICPRP | 0.168
103 | RRIRYRPPRLPRPRPRPQHIPRP | -0.754
104 | RRIRYRPPRLPRPRPRPLVEPRP | -0.234
105 | RRIRPRPPRLPRPRPRPCNYPRP | -0.152
106 | RRIRMRPPRLPRPRPRPFAIPRP | -0.0351
107 | RRIRTRPPRLPRPRPRPHGCPRP | 0.14
108 | RRIRYRPPRLPRPRPRPLRVPRP | -0.0922
109 | RRIRPRPPRLPRPRPRPTRYPRP | 0.23
110 | RRIRLRPPRLPRPRPRPKSEPRP | 0.0422
111 | RRIRWRPPRLPRPRPRPLYGPRP | -0.369
112 | RRIRCRPPRLPRPRPRPWSSPRP | 0.615
113 | RRIRERPPRLPRPRPRPRDIPRP | -0.0401
114 | RRIRFRPPRLPRPRPRPVVWPRP | 0.408
115 | RRIRIRPPRLPRPRPRPKMVPRP | -0.159
116 | RRIRDRPPRLPRPRPRPGDPPRP | 0.293
117 | RRIRYRPPRLPRPRPRPPGAPRP | 0.397
118 | RRIRNRPPRLPRPRPRPFHCPRP | -0.536
119 | RRIRLRPPRLPRPRPRPAHGPRP | -0.0453
120 | RRIRARPPRLPRPRPRPKKSPRP | 1.2
121 | RRIRMRPPRLPRPRPRPWFRPRP | -0.305
122 | RRIRNRPPRLPRPRPRPAAFPRP | -0.0633
123 | RRIRVRPPRLPRPRPRPVHWPRP | 0.133
124 | RRIRKRPPRLPRPRPRPHQGPRP | 0.0968
125 | RRIRWRPPRLPRPRPRPYPSPRP | -0.0856
